Reference: US7144862B2, “Orally administered peptides to ameliorate atherosclerosis” (The Regents of the University of California, priority 2000, dated 2006)
“Also recorded” adds a separate entry of the source. Non-standard residues stand in square brackets, D forms with d. Residues, ends and D or L forms follow the SMILES beside them.

Experiments:
[1] = test system: red blood cells of LDL receptor deficient mice; experiment: In vitro red cell lysis after gavage of D peptides; format: in vivo, mouse; settings: 100 μg by gavage, blood 17 and 48 hrs later
Method: Red cells were separated by centrifugation, were diluted to 10% hematocrit with PBS and incubated at 37° C. with gentle mixing. Aliquots were removed at time points t=0, 2, 6 and 18 hrs, cell pellets spun down and the optical density due to the released hemoglobin determined.

[2] = test system: Human aortic wall cocultures; experiment: LDL plus peptide in vitro in human aortic wall cocultures, monocyte chemotactic activity (Example 2); format: cell-based; settings: control LDL 250 μg/ml plus varying amounts of peptide
Method: Human aortic wall cocultures were incubated with medium alone (LDL, NO CELLS or CELLS, NO LDL, see FIG. 9), control LDL from normal subjects at 250 μg/ml (LDL) and LDL plus control HDL from normal subjects at 350 μg/ml (+HDL). Other cocultures were incubated With the control LDL together with varying amounts (micrograms shown on the abscissa) of either D-2F, or L-2F (third panel from the left, 2F) or D-37-pA or L-37pA (last panel on the right, 37pA). The data represent mean±SD of values obtained from quadruplicate cocultures.

[3] = Antibody formation against D-2F (other studies); format: in vivo
[4] = test system: human artery wall cell cocultures; experiment: Lipoproteins from mice given peptide by gavage tested in human artery wall cell cocultures (monocyte chemotactic activity); settings: for resistance of circulating mouse LDL to oxidation (monocyte chemotactic activity): 100 μg by gavage, LDL receptor-deficient mice, blood 17 hrs later
Method: Groups of LDL receptor-deficient mice (n=3) were administered the D-peptides or the saline vehicle by gavage. […] Blood was collected from retroorbital sinus under mild anesthesia 17 hrs later. LDL was isolated from plasma by FPLC. Cocultures of artery wall cells were incubated with medium alone (NO ADDITION), control LDL from normal subjects (LDL), LDL plus control HDL from normal subjects (+HDL). […] The cocultures were incubated for 4 hrs at 37° C. in the presence of 10% LPDS. The supernatants were then discarded, the cocultures were washed and incubated with culture medium without serum or LPDS for an additional 4 hrs. This conditioned medium was collected and analyzed for monocyte chemotactic activity. The values are mean±SD of quadruplicate cocultures.
Blood was collect after 6 hrs, plasma HDL and LDL were isolated by gel filtration (FPLC) and examined in the cocultures. […] Human LDL at 200 μg protein/ml was added to human artery wall cell cocultures together with human HDL (hHDL) at 350 μg protein/ml or mouse HDL (mHDL) at 100 μg cholesterol/ml taken from mice that received saline (Saline Rx) or L-4F (L-4F Rx) or D-4F (D-4F Rx) and monocyte chemotactic activity was determined as described herein. […] On the right, mouse LDL (mLDL) was isolated from mice receiving saline (Saline Rx) or L-4F (L4F Rx) or D-4F (D-4F Rx) and was added at 100 μg cholesterol/ml to the artery wall cell cocultures without HDL and monocyte chemotactic activity determined. Values are mean±SD) for four wells in two independent experiments.
Either saline or 2F synthesized from D amino acids or from L amino acids was instilled in the stomachs of mice by gavage (instillation in the stomach by tube). After gavage the mice were bled and their LDL isolated and added to the human artery wall cell cocultures.
The animals were bled 1.5, 3 or 6 hours later and their HDL, LDL, and VLDL/IDL isolated.
Human aortic endothelial and smooth muscle cells were isolated and cultured as previously described (Id.). Cellular oxidation of LDL in the presence and absence of HDL was determined as described (Id.). Human blood monocytes were isolated after obtaining informed consent and monocyte chemotaxis was determined as described previously^5.

[5] = Plasma cholesterol lipoprotein profiles (CLiP); format: in vivo, mouse; settings: 16 weeks atherogenic diet, daily i.p.
Method: Plasma cholesterol lipoprotein profiles were measured using our recently-developed CLiP method (Garber et al. (2000) J. Lipid Res. 41:1020–1026). Briefly, 5 to 10 μl of plasma were analyzed using a single Superose 6 (Pharmacia, Piscataway N.J.) column. Immediately following the column, cholesterol reagent was introduced through a mixing tee, and the eluent:reagent mixture entered a post-column reaction coil. Cholesterol content of the eluent mixture was spectrophotometrically detected at 500 nm, and data points were collected into a computer. The resulting profiles were decomposed into component peaks and analyzed for relative area using PeakFit (SPSS Science, Chicago, Ill.); absolute cholesterol values for total cholesterol and each component peak were determined by comparison with a control sample of known values. In some cases fractions were collected to determine distribution of radioactivity. The CLiP method allowed analysis of individual mouse samples, avoiding the use of pooled samples.

[6] = mouse, in vivo
Method: The 5F peptide, MoAI, and human apo A-I were labeled with ^125I by the method of Bilheimer et al. (1972) Biochim. Biophys. Acta 260: 212–221. Mice were placed on a modified Thomas-Hartroft atherogenic diet (#TD88051; Teklad, Madison, Wis.) for four weeks at which time daily intraperitoneal injections of peptide or protein dissolved in 200 μl phosphate-buffered saline (PBS) were begun. Animals injected with MoAI or human apo A-I received 50 μg per animal; those injected with 5F received 20 μg. Animals were not fasted for the kinetic studies and blood samples were taken under xylazine:ketamine anesthesia from the retro-orbital sinus at 15, 30, and 45 minutes, and 1, 1.5, 2, 3, 4, 6, 8, 12, and 24 hours following injection. Each animal provided three blood samples at different time points (all retro-orbital and alternating eyes), and at least three samples were collected (from different animals) at each time point. Samples were collected into heparinized capillary tubes, then placed in microcentrifuge tubes; the plasma was separated by centrifugation. Duplicate 10 μl aliquots of each sample were taken for radioactivity determination, using gamma counting (Cobra; Packard Instruments, Downers Grove, Ill.) for 10 minutes per sample. Total plasma volume was calculated as 4.2% body weight. Each sample was expressed as percent of injected CPM in total plasma. Free ^125I was determined by trichloroacetic acid (TCA) precipitation (1 ml of 10% TCA per 10 μl plasma sample). Fitting to the kinetic model was done using all data points, rather than averages at each time point (PKAnalyst, MicroMath Scientific Software, Salt Lake City, Utah).
Treatment groups were compared by two-tailed t-tests or one way analysis of variance (where the data were normally distributed), or by one way analysis of variance on ranks (SigmaStat; SPSS Science, Chicago, Ill.). Kinetics of peptide or protein turnover were analyzed by fitting to a first order one-compartment kinetic model assuming non-equal input and output rates (PKAnalyst; MicroMath Scientific Software, Salt Lake City, Utah).

[7] = Survival, toxicity, body and liver weights after 16 weeks of injection
Method: Mice were acquired at six weeks of age, and randomized into groups of 20, except that a negative control group of 10 received no treatments and was given standard rodent chow. At eight weeks of age, the treatment groups were placed on a modified Thomas-Hartroft atherogenic diet (#TD88051; Teklad, Madison, Wis.), and injections were begun. […] Animals were injected intraperitoneally daily for 16 weeks, including weekends and holidays.
At the end of the study (week 16), at the last bleeding, the heart and the liver were excised. […] The livers were removed and weighed.

[8] = Antibody detection by indirect ELISA after 16 weeks of daily injection; format: in vivo, mouse; settings: plasma at conclusion of 16-week injection period
Method: To determine whether daily injections of peptides elicited any immune response in mice, indirect ELISA titration (Engvall (1980) Meth. Enzymol. 70:419–439) was carried out with plasma taken from mice at the time of organ collection (following sixteen weeks of daily injection). Plates were coated with the injected peptides or MoAI (10 μg/ml). Plates were incubated overnight. After thorough washing with borate buffered saline (pH 8.2) containing 0.05% Tween 20, and blocking with buffer (0.1% gelatin and 0.1% BSA in borate buffer) for 1 h, 200 μl of the diluted mouse plasma (1:100 dilution) samples were serially diluted 1:1 with borate-buffered saline. Biotinylated goat antibody to mouse IgG (0.1 μg/ml) was then added to the wells and the plates were treated with SA-HRP (Streptavidin-horse radish peroxidase) for an hour and developed with ABTS and peroxide as substrate. The plates were incubated overnight at room temperature after every addition of antigen/antibody and washed thoroughly with borate buffered saline (pH 8.2) containing 0.05% Tween 20, and blocked with buffer (0.1% gelatin and 0.1% BSA in borate buffer) for 1 h before the next addition.

[9] = test system: C57BL/6J mice fed an atherogenic diet; experiment: Aortic lesion formation, daily intraperitoneal injection for 16 weeks, atherogenic diet; format: in vivo, mouse; settings: 5F 20 μg or MoAI 50 μg daily i.p.
Method: The livers were removed and weighed.
Histological evaluations were performed according to the method of Paigen et al. (Paigen et al. (1990) Arteriosclerosis 10: 316–323) with some modifications. Briefly, hearts were fixed for at least one week in the phosphate-buffered formaldehyde solution. After removing the lower ⅔ of the hearts, the remaining tissue was frozen in OCT medium (Tissue-Tek, Miles Inc., Elkhart, Ind.) and sectioned in a cryostat at −20° C. Alternate 20 μm sections were saved on slides, and observed for the beginning of the aortic root. Sections were then collected for an additional 600 μm, or until the aortic cross-section was rounded and the valve cusps were no longer evident. Slides were stained with Oil Red O, and counterstained with hematoxylin. Stained lesion cross-sectional areas were measured in consecutive slides 80 μm apart by image analysis (SigmaScan Pro, SPSS Scientific, Chicago, Ill.), and the average lesion area was determined for each aortic sinus over the 400 μm length (five slides) providing the greatest mean lesion area.

[10] = after 16 weeks, atherogenic diet, daily i.p., mean ± SEM

Molecule: CC(=O)N[C@H](CC(=O)O)C(=O)N[C@H](Cc1c[nH]c2ccccc12)C(=O)N[C@H](CC(C)C)C(=O)N[C@H](CCCCN)C(=O)N[C@H](C)C(=O)N[C@H](Cc1ccccc1)C(=O)N[C@H](Cc1ccc(O)cc1)C(=O)N[C@H](CC(=O)O)C(=O)N[C@H](CCCCN)C(=O)N[C@@H](C(=O)N[C@H](C)C(=O)N[C@H](CCC(=O)O)C(=O)N[C@H](CCCCN)C(=O)N[C@H](CC(C)C)C(=O)N[C@H](CCCCN)C(=O)N[C@H](CCC(=O)O)C(=O)N[C@H](C)C(=O)N[C@H](Cc1ccccc1)C(N)=O)C(C)C [Peptide D-2F, Ac-D-W-L-K-A-F-Y-D-K-V-A-E-K-L-K-E-A-F-NH2] (Ac-[dD][dW][dL][dK][dA][dF][dY][dD][dK][dV][dA][dE][dK][dL][dK][dE][dA][dF]-NH2)
- red cell lysis (hemolysis) after gavage [1]: resistant to hemolysis
- monocyte chemotactic activity induced by LDL treated with peptide in vitro [2]: significantly different from LDL; also recorded: equally able to block LDL oxidation and LDL-induced monocyte chemotactic activity
- antibody formation against the peptide [3]: not seen evidence of antibody formation
- resistance of circulating mouse LDL to oxidation (monocyte chemotactic activity) [4]: resistant to oxidation
- monocyte chemotaxis induced by LDL from mice given 2F by gavage ([4]; D versus L form by gavage): reduced monocyte chemotaxis

Molecule: CC(C)C[C@@H](NC(=O)[C@@H](Cc1c[nH]c2ccccc12)NC(=O)[C@H](N)CC(=O)O)C(=O)N[C@H](CCCCN)C(=O)N[C@H](C)C(=O)N[C@H](Cc1ccccc1)C(=O)N[C@H](Cc1ccc(O)cc1)C(=O)N[C@H](CC(=O)O)C(=O)N[C@H](CCCCN)C(=O)N[C@@H](C(=O)N[C@H](C)C(=O)N[C@H](CCC(=O)O)C(=O)N[C@H](CCCCN)C(=O)N[C@H](CC(C)C)C(=O)N[C@H](CCCCN)C(=O)N[C@H](CCC(=O)O)C(=O)N[C@H](C)C(=O)N[C@H](Cc1ccccc1)C(=O)N1CCC[C@@H]1C(=O)N[C@H](CC(=O)O)C(=O)N[C@H](Cc1c[nH]c2ccccc12)C(=O)N[C@H](CC(C)C)C(=O)N[C@H](CCCCN)C(=O)N[C@H](C)C(=O)N[C@H](Cc1ccccc1)C(=O)N[C@H](Cc1ccc(O)cc1)C(=O)N[C@H](CC(=O)O)C(=O)N[C@H](CCCCN)C(=O)N[C@@H](C(=O)N[C@H](C)C(=O)N[C@H](CCC(=O)O)C(=O)N[C@H](CCCCN)C(=O)N[C@H](CC(C)C)C(=O)N[C@H](CCCCN)C(=O)N[C@H](CCC(=O)O)C(=O)N[C@H](C)C(=O)N[C@H](Cc1ccccc1)C(=O)O)C(C)C)C(C)C [Peptide D-37pA] (H-[dD][dW][dL][dK][dA][dF][dY][dD][dK][dV][dA][dE][dK][dL][dK][dE][dA][dF][dP][dD][dW][dL][dK][dA][dF][dY][dD][dK][dV][dA][dE][dK][dL][dK][dE][dA][dF]-OH)
- red cell lysis (hemolysis) after gavage [1]: resistant to hemolysis
- monocyte chemotactic activity induced by LDL treated with peptide in vitro [2]: significantly different from LDL
- resistance of circulating mouse LDL to oxidation (monocyte chemotactic activity) [4]: resistant to oxidation

B1: Mouse apo A-I: mouse apo A-I isolated from the plasma of C57BL/6J mice (protein, UniProt Q00623 25-264, looked up)
Apolipoprotein A-I: DEPQSQWDKVKDFANVYVDAVKDSGRDYVSQFESSSLGQQLNLNLLENWDTLGSTVSQLQERLGPLTRDFWDNLEKETDWVRQEMNKDLEEVKQKVQPYLDEFQKKWKEDVELYRQKVAPLGAELQESARQKLQELQGRLSPVAEEFRDRMRTHVDSLRTQLAPHSEQMRESLAQRLAELKSNPTLNEYHTRAKTHLKTLGEKARPALEDLRHSLMPMLETLKTQVQSVIDKASETLTAQ
- HDL as percent of total cholesterol [5]: (9.34 ± 1.19%*)
- IDL + LDL as percent of total cholesterol [5]: (42.44 ± 2.46%)
- VLDL as percent of total cholesterol [5]: (48.23 ± 2.75%)
- HDL cholesterol ([5]; mean ± SEM): 19.50 ± 3.07 mg/dL
- IDL + LDL cholesterol ([5]; mean ± SEM): 87.86 ± 8.34 mg/dL
- TC (total cholesterol) ([5]; mean ± SEM): 207.45 ± 16.94 mg/dL
- VLDL cholesterol ([5]; mean ± SEM): 100.08 ± 9.73 mg/dL
- Max. % in plasma [6]: 13.5%
- Time (h) to max. CPM ([6]; ip): 1.74 h
- T½ ([6]; ip): 15.7 h
- toxicity ([7]; 16 weeks daily i.p. injection): No toxicity
- Body Weight [7, 10]: 21.16 ± 0.34 g
- Liver Weight [7, 10]: 1.72 ± 0.04 g
- Liver: Body (percentage) [7, 10]: 8.15 ± 0.23%
- mice died from unexplained causes ([7]; during the prolonged diet studies, groups of 20): Two
- antibodies against the injected material [8]: No antibodies were detected
- mean lesion cross-sectional area compared with PBS-injected animals [9]: no difference in lesion area
